According to CN111434684A:
Values joined by “and” are separate entries in the source; they are usually repeats but may differ in a detail not shown here. Equal entries are not always repeated.

B1: 抗H7N9全人源单克隆抗体5Q2 (antibody, V domains shown)
VH: QVQLVESGAEVKKPGASVKVSCKASGYIFTNYDINWVRQATGQGLEWMGWMSPDNGDTGFAQKFQGRVTMTRNTSITTAYMELSSLTSEDTAVYYCATGSADCNGGNCYSWFDPWGQGTLVTVSS
VL: SSELTQDPAVSVALGQTVRITCQGDRVRNYYASWYQQKPGQAPVLVIYGKSNRPSGIPDRFSGSSSGNTASLTITGAQAEDEADYYCSNRDTNGYHVLFGGGTKLTVLV

Legend:
[1] = biological target: H7N9病毒的HA蛋白(购自ACROBiosystems) (H7N9 influenza virus); experiment: ELISA, HA coated, negative control
[2] = biological target: H7N9病毒 A/Anhui/1/2013 的血凝素HA (on live virus) (influenza A virus A/Anhui/1/2013 (H7N9)); experiment: cell-based or functional assay
[3] = biological target: H7N9病毒的HA蛋白(购自ACROBiosystems) (H7N9 influenza virus); experiment: ELISA, HA coated, supernatant of 293F cells transfected with 5Q2 H and L genes

Molecule | 450nm [1] | 中和实验 (微量中和-ELISA, MDCK细胞) IC50 [2] [µg/mL] | 450nm [3]
阴性对照 (ELISA, wells G, H) | 0.0675 OD450 and 0.0554 OD450 | – | –
B1 | – | 5.52 | 1.23 OD450 and 0.936 OD450 and 0.723 OD450
